Data from patent US20250230251A1 (Bristol-Myers Squibb, published 2025).

T1: human IL-18Rβ on cells (human, UniProt O95256 20-599)
T1 sequence: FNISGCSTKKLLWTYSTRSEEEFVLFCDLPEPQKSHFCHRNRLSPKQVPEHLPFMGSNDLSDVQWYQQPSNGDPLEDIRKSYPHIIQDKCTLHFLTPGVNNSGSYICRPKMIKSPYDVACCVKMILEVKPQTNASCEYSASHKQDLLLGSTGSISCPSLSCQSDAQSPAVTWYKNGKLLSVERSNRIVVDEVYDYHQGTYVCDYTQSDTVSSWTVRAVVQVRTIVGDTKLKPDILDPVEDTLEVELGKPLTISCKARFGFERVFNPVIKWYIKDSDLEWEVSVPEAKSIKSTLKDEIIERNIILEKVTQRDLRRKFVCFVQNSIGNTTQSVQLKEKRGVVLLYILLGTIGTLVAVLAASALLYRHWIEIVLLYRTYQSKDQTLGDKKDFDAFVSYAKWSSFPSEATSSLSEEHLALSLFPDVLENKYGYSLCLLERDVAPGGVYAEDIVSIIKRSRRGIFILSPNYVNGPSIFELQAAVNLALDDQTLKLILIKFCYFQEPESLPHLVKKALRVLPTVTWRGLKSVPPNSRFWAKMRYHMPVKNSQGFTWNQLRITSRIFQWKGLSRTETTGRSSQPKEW

T2: huIL-18Rβ-HisAvi (human, UniProt O95256 20-356, biotinylated in the Octet blocking assay)
T2 construct: Soluble analyte in all SPR runs; captured on streptavidin sensors in the Octet assay; also called human IL-18Rβ; human IL-18Rβ-Avi-His
T2 sequence: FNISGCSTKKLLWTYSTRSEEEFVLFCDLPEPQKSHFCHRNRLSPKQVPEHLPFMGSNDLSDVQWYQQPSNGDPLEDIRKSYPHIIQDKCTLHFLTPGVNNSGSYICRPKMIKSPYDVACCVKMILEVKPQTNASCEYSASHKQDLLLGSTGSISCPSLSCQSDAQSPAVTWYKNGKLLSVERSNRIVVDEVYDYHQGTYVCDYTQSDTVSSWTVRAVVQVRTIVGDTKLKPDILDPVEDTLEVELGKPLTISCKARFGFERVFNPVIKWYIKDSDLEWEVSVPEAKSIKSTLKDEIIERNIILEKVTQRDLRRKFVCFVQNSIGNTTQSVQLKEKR

T3: cyIL-18Rβ-HisAvi (cynomolgus monkey)
T3 construct: Soluble analyte in SPR; also called cyno IL-18Rβ; cynomolgus monkey IL-18Rβ
T3 chain: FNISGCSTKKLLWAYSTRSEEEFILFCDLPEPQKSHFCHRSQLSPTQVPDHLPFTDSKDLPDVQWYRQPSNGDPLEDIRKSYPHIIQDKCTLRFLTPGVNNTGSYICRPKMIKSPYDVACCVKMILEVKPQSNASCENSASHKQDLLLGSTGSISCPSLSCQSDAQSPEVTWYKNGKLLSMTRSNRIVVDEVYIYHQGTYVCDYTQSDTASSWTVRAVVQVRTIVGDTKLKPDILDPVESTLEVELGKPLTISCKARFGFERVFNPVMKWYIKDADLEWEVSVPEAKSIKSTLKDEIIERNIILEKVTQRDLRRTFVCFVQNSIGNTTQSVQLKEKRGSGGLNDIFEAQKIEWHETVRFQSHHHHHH


Key:
human IL-18Rβ on cells = biological target: T1, human IL-18Rβ on cells; experiment: cell-based or functional assay
huIL-18Rβ-HisAvi [1] = biological target: T2, huIL-18Rβ-HisAvi; experiment: SPR T200, mAb on anti-hFc, 37C, pH 6
huIL-18Rβ-HisAvi [2] = biological target: T2, huIL-18Rβ-HisAvi; experiment: SPR T200, mAb on anti-hFc, 37C, pH 7.4
cyIL-18Rβ-HisAvi [3] = biological target: T3, cyIL-18Rβ-HisAvi; experiment: SPR T200, mAb on anti-hFc, 37C, pH 6
cyIL-18Rβ-HisAvi [4] = biological target: T3, cyIL-18Rβ-HisAvi; experiment: SPR T200, mAb on anti-hFc, 37C, pH 7.4
huIL-18Rβ-HisAvi [5] = biological target: T2, huIL-18Rβ-HisAvi; experiment: SPR T200, mAb on anti-hFc, 37C, pH 6; remark: listed apart in the source
cyIL-18Rβ-HisAvi [6] = biological target: T3, cyIL-18Rβ-HisAvi; experiment: SPR T200, mAb on anti-hFc, 37C, pH 6
huIL-18Rβ-HisAvi [7] = biological target: T2, huIL-18Rβ-HisAvi; experiment: SPR T200, mAb on anti-hFc, 37C, pH 7.4; remark: listed apart in the source
cyIL-18Rβ-HisAvi [8] = biological target: T3, cyIL-18Rβ-HisAvi; experiment: SPR T200, mAb on anti-hFc, 37C, pH 7.4

IC50, LPS+IL-12 dependent IFNg production, human whole blood (human IL-18Rβ on cells) | Kd (huIL-18Rβ-HisAvi [1]) | koff (huIL-18Rβ-HisAvi [1]) | kon (huIL-18Rβ-HisAvi [1]) | Kd (huIL-18Rβ-HisAvi [2]) | koff (huIL-18Rβ-HisAvi [2]) | kon (huIL-18Rβ-HisAvi [2]) | Kd (cyIL-18Rβ-HisAvi [3]) | koff (cyIL-18Rβ-HisAvi [3]) | kon (cyIL-18Rβ-HisAvi [3]) | Kd (cyIL-18Rβ-HisAvi [4]) | koff (cyIL-18Rβ-HisAvi [4]) | kon (cyIL-18Rβ-HisAvi [4]) | Binder | also measured
1.09 nM | 0.22 nM | 0.00028 s⁻¹ | 1.3e+06 M⁻¹ s⁻¹ | 0.8 nM | 0.00047 s⁻¹ | 580000 M⁻¹ s⁻¹ | – | – | – | – | – | – | P8-V1 (antibody, human IgG1, kappa, V domains shown, Variant of P8) VH: QVQLVQSGAEVKKPGASVKVSCKASGYTFTSYYMHWVRQAPGQGLEWMGIINPRGGYTTYAQKFQGRVTMTRDTSTSTVYMELSSLRSEDTAVYYCAKEGRVSPTDYYGMDVWGQGTTVTVSS VL: not shown | –
1.65 nM | 0.7 nM | 0.00043 s⁻¹ | 610000 M⁻¹ s⁻¹ | 2.3 nM | 0.00053 s⁻¹ | 230000 M⁻¹ s⁻¹ | 14 nM | 0.0022 s⁻¹ | 160000 M⁻¹ s⁻¹ | 22 nM | 0.0032 s⁻¹ | 150000 M⁻¹ s⁻¹ | P21-V2 (antibody, human IgG1, kappa, name in Kabat numbering, built from the chains of the parent P21 with the printed mutation) heavy: QVQLQQSGPGLVKPSETLSLTCTVSGGSISNYYWTWIRQPPGKGLEWIGYISDSGSTNYNPSLKSRVTISVDTSKNQFSLKLSSVTAADTAVYYCARETIVVRGFYFYVMDVWGQGTTVTVSSASTKGPSVFPLAPSSKSTSGGTAALGCLVKDYFPEPVTVSWNSGALTSGVHTFPAVLQSSGLYSLSSVVTVPSSSLGTQTYICNVNHKPSNTKVDKRVEPKSCDKTHTCPPCPAPEAEGAPSVFLFPPKPKDTLMISRTPEVTCVVVDVSHEDPEVKFNWYVDGVEVHNAKTKPREEQYNSTYRVVSVLTVLHQDWLNGKEYKCKVSNKALPAPIEKTISKAKGQPREPQVYTLPPSREEMTKNQVSLTCLVKGFYPSDIAVEWESNGQPENNYKTTPPVLDSDGSFFLYSKLTVDKSRWQQGNVFSCSVMHEALHNHYTQKSLSLSPG light: not shown | –
1.63 nM | 0.66 nM | 0.00039 s⁻¹ | 590000 M⁻¹ s⁻¹ | 2.3 nM | 0.00054 s⁻¹ | 240000 M⁻¹ s⁻¹ | 8.4 nM | 0.0016 s⁻¹ | 190000 M⁻¹ s⁻¹ | 17 nM | 0.0027 s⁻¹ | 160000 M⁻¹ s⁻¹ | P21-V3 (antibody, human IgG1, kappa, name in Kabat numbering, built from the chains of the parent P21 with the printed mutations) heavy: QVQLQESGPGLVKPSETLSLTCTVSGGSISNYYWTWIRQPPGKGLEWIGYISDSGSTNYNPSLKSRVTISVDTSKNQFSLKLSSVTAADTAVYYCARETIVVRGFYFYVMDVWGQGTTVTVSSASTKGPSVFPLAPSSKSTSGGTAALGCLVKDYFPEPVTVSWNSGALTSGVHTFPAVLQSSGLYSLSSVVTVPSSSLGTQTYICNVNHKPSNTKVDKRVEPKSCDKTHTCPPCPAPEAEGAPSVFLFPPKPKDTLMISRTPEVTCVVVDVSHEDPEVKFNWYVDGVEVHNAKTKPREEQYNSTYRVVSVLTVLHQDWLNGKEYKCKVSNKALPAPIEKTISKAKGQPREPQVYTLPPSREEMTKNQVSLTCLVKGFYPSDIAVEWESNGQPENNYKTTPPVLDSDGSFFLYSKLTVDKSRWQQGNVFSCSVMHEALHNHYTQKSLSLSPG light: not shown | Kd (huIL-18Rβ-HisAvi [5]): 0.66 nM; koff (huIL-18Rβ-HisAvi [5]): 0.00039 s⁻¹; kon (huIL-18Rβ-HisAvi [5]): 590000 M⁻¹ s⁻¹; Kd (cyIL-18Rβ-HisAvi [6]): 8.4 nM; koff (cyIL-18Rβ-HisAvi [6]): 0.0016 s⁻¹; kon (cyIL-18Rβ-HisAvi [6]): 190000 M⁻¹ s⁻¹; Kd (huIL-18Rβ-HisAvi [7]): 2.3 nM; koff (huIL-18Rβ-HisAvi [7]): 0.00054 s⁻¹; kon (huIL-18Rβ-HisAvi [7]): 240000 M⁻¹ s⁻¹; Kd (cyIL-18Rβ-HisAvi [8]): 17 nM; koff (cyIL-18Rβ-HisAvi [8]): 0.0027 s⁻¹; kon (cyIL-18Rβ-HisAvi [8]): 160000 M⁻¹ s⁻¹
